Paper doi:10.1101/2025.09.19.677352

What was measured:
[1] = target: ap JFcα (mallard duck IgA heavy chain Cα2-Cα3-Cα4-Tp co-expressed with joining chain) (Anas platyrhynchos (mallard duck)); experiment: SPR
[2] = target: mm JFcα (mouse IgA heavy chain and joining chain) (Mus musculus (house mouse)); experiment: SPR

SPR response [1] [RU] | Substance | other results
 | ap SC D1_(ΔN-ext.)-D2-D3-D4 (mallard duck SC without the SC N-terminal extension) (domain or fragment) | maximum response against concentration-matched ap SC wt [1]: 20 % lower
29 | hs SC D1 (human SC D1 only) (domain or fragment) | 
34 | hs SC D1-D3-D4-D5 (human SC with D2 deletion) (from UniProt P01833 19-638) (domain or fragment) | 
7 | mm SC D1 (mouse SC D1 only) (domain or fragment) | 
1 | mm SC D1-D3-D4-D5 (mouse SC with D2 deletion) (from UniProt O70570 19-585) (domain or fragment) | 
 | mm SC D1_((+)N-ext.) (mouse SC D1 with the mallard duck SC N-terminal extension) | maximum response at 64 nM against the non-chimeric variant [2]: 93 % higher
